Results from patent US20220213461A1.

Columns and labels:
[1] = molecular target: butelase-1 (active form extracted from Clitoria ternatea plant material) (Clitoria ternatea); experiment: affinity binding of glycosylated enzyme to ConA agarose beads, 4 C 3 h; unbound protein in flow-through measured by A280
[2] = molecular target: butelase-1 (active form extracted from Clitoria ternatea plant material) (Clitoria ternatea); experiment: affinity binding of glycosylated enzyme to ConA agarose beads; unbound protein measured by A280
[3] = molecular target: biotinylated butelase-1 (Clitoria ternatea); experiment: affinity binding of biotinylated enzyme to NeutrAvidin agarose beads, pH 6.5, 4 C 3 h; unbound protein measured by A280
[4] = molecular target: biotinylated VyPAL2 (Viola yedoensis); experiment: as above
[5] = molecular target: T1, GN14-SLAN (GISTKSIPPISYRNSLAN)
T1 chain: GISTKSIPPISYRNSLAN

Concanavalin A (ConA) on agarose beads (from UniProt P02866 30-281)
Yield (%) (observed / expected maximal concentration on beads) [1]: 39% | percent of enzyme remaining in the solution (unbound) [2]: 61%

NeutrAvidin (deglycosylated avidin) on agarose beads (from UniProt P02701 25-152)
Yield (%) (observed / expected maximal concentration on beads) [3]: 49% | Yield (%) (observed / expected maximal concentration on beads) [4]: 45%

B1: VyPAL2 (recombinant, insect-cell expressed, acid-activated active form) (protein)
chain: STNDDDSIGTRWAVLIAGSKGYHNYRHQADVCHMYQILRKGGVKDENIIVFMYDDIAYNESNPFPGIIINKPGGENVYKGVPKDYTGEDINNVNFLAAILGNKSAIIGGSGKVLDTSPNDHIFIYYADHGAPGKIGMPSKPYLYADDLVDTLKQKAATGTYKSMVFYVEACNAGSMFEGLLPEGTNIYAMAASNSTEGSWITYCPGTPDFPPEFDVCLGDLWSITFLEDCDAHNLRTETVHQQFELVKKKIAYASTVSQYGDIPISKDSLSVYMGTDPANDNRTFVDEN
catalytic efficiency (kcat/KM) of cyclization, HPLC-based kinetics, pH 6.5, 37 C [5]: 274,325 M^-1s^-1

B2: butelase-1 (active form extracted from Clitoria ternatea plant material) (protein)
chain: VEGTRWAVLVAGSKGYVNYRHQADVCHAYQILKKGGLKDENIIVFMYDDIAYNESNPHPGVIINHPYGSDVYKGVPKDYVGEDINPPNFYAVLLANKSALTGTGSGKVLDSGPNDHVFIYYTDHGGAGVLGMPSKPYIAASDLNDVLKKKHASGTYKSIVFYVESCESGSMFDGLLPEDHNIYVMGASDTGESSWVTYCPLQHPSPPPEYDVCVGDLFSVAWLEDCDVHNLQTETFQQQYEVVKNKTIVALIEDGTHVVQYGDVGLSKQTLFVYMGTDPAN
catalytic efficiency (kcat/KM) of cyclization, HPLC-based kinetics, pH 6.5, 37 C [5]: 971,936 M^-1s^-1
